According to patent US20220298218A1 (ANTAG THERAPEUTICS, published 2022):
*1 amine or outer side, *2 acyl side, *3 side chain or, on linkers, in order; H or OH if unused. Where no end group is shown, it is not given here. Side-chain parts run from the residue outwards. The star is where a group is joined. C18 diacid = O=C(O)CCCCCCCCCCCCCCCCC(=O)*; C16 diacid = O=C(O)CCCCCCCCCCCCCCC(=O)*; γGlu = O=C(O)[C@H](CCC(=O)[*:2])N[*:1]; AEEA = NCCOCCOCC(=O)O

T1: human GIP receptor (human, UniProt P48546 22-466)
T1 sequence (looked up): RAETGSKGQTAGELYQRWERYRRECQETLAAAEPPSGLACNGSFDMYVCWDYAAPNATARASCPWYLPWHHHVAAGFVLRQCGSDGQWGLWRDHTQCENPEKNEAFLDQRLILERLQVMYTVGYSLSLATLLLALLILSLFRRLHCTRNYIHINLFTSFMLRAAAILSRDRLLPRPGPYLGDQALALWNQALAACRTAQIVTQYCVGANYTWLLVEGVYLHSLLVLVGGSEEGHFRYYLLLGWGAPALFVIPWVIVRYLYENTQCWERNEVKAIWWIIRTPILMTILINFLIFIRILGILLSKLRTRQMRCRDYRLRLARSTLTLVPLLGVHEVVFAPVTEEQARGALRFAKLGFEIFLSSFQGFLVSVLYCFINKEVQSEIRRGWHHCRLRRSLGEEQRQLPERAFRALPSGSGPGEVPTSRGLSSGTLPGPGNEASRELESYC

B1: AT441 (peptide)
peptide: SGTFISDYSIAMDRIK([AEEA-AEEA-γGlu-C18 diacid])QQDFVNWLLAQRGPSSGAPPPS-OH
modifications: N-terminus assumed
SMILES: CC[C@H](C)[C@H](NC(=O)[C@H](CO)NC(=O)[C@H](Cc1ccc(O)cc1)NC(=O)[C@H](CC(=O)O)NC(=O)[C@H](CO)NC(=O)[C@@H](NC(=O)[C@H](Cc1ccccc1)NC(=O)[C@@H](NC(=O)CNC(=O)[C@@H](N)CO)[C@@H](C)O)[C@@H](C)CC)C(=O)N[C@@H](C)C(=O)N[C@@H](CCSC)C(=O)N[C@@H](CC(=O)O)C(=O)N[C@@H](CCCNC(=N)N)C(=O)N[C@H](C(=O)N[C@@H](CCCCNC(=O)COCCOCCNC(=O)COCCOCCNC(=O)CC[C@H](NC(=O)CCCCCCCCCCCCCCCCC(=O)O)C(=O)O)C(=O)N[C@@H](CCC(N)=O)C(=O)N[C@@H](CCC(N)=O)C(=O)N[C@@H](CC(=O)O)C(=O)N[C@@H](Cc1ccccc1)C(=O)N[C@H](C(=O)N[C@@H](CC(N)=O)C(=O)N[C@@H](Cc1c[nH]c2ccccc12)C(=O)N[C@@H](CC(C)C)C(=O)N[C@@H](CC(C)C)C(=O)N[C@@H](C)C(=O)N[C@@H](CCC(N)=O)C(=O)N[C@@H](CCCNC(=N)N)C(=O)NCC(=O)N1CCC[C@H]1C(=O)N[C@@H](CO)C(=O)N[C@@H](CO)C(=O)NCC(=O)N[C@@H](C)C(=O)N1CCC[C@H]1C(=O)N1CCC[C@H]1C(=O)N1CCC[C@H]1C(=O)N[C@@H](CO)C(=O)O)C(C)C)[C@@H](C)CC
B2: AT469 (peptide)
peptide: EGTFISDYSIAMDKIK(C16 diacid)QQDFVNWLLAQKGPSSGAP-OH
modifications: N-terminus assumed
SMILES: CC[C@H](C)[C@H](NC(=O)[C@H](CO)NC(=O)[C@H](Cc1ccc(O)cc1)NC(=O)[C@H](CC(=O)O)NC(=O)[C@H](CO)NC(=O)[C@@H](NC(=O)[C@H](Cc1ccccc1)NC(=O)[C@@H](NC(=O)CNC(=O)[C@@H](N)CCC(=O)O)[C@@H](C)O)[C@@H](C)CC)C(=O)N[C@@H](C)C(=O)N[C@@H](CCSC)C(=O)N[C@@H](CC(=O)O)C(=O)N[C@@H](CCCCN)C(=O)N[C@H](C(=O)N[C@@H](CCCCNC(=O)CCCCCCCCCCCCCCC(=O)O)C(=O)N[C@@H](CCC(N)=O)C(=O)N[C@@H](CCC(N)=O)C(=O)N[C@@H](CC(=O)O)C(=O)N[C@@H](Cc1ccccc1)C(=O)N[C@H](C(=O)N[C@@H](CC(N)=O)C(=O)N[C@@H](Cc1c[nH]c2ccccc12)C(=O)N[C@@H](CC(C)C)C(=O)N[C@@H](CC(C)C)C(=O)N[C@@H](C)C(=O)N[C@@H](CCC(N)=O)C(=O)N[C@@H](CCCCN)C(=O)NCC(=O)N1CCC[C@H]1C(=O)N[C@@H](CO)C(=O)N[C@@H](CO)C(=O)NCC(=O)N[C@@H](C)C(=O)N1CCC[C@H]1C(=O)O)C(C)C)[C@@H](C)CC
B3: AT470 (peptide)
peptide: EGTFISDYSIAMDKIK(C16 diacid)QQDFVNWLLAQKGPSSGA-OH
modifications: N-terminus assumed
SMILES: CC[C@H](C)[C@H](NC(=O)[C@H](CO)NC(=O)[C@H](Cc1ccc(O)cc1)NC(=O)[C@H](CC(=O)O)NC(=O)[C@H](CO)NC(=O)[C@@H](NC(=O)[C@H](Cc1ccccc1)NC(=O)[C@@H](NC(=O)CNC(=O)[C@@H](N)CCC(=O)O)[C@@H](C)O)[C@@H](C)CC)C(=O)N[C@@H](C)C(=O)N[C@@H](CCSC)C(=O)N[C@@H](CC(=O)O)C(=O)N[C@@H](CCCCN)C(=O)N[C@H](C(=O)N[C@@H](CCCCNC(=O)CCCCCCCCCCCCCCC(=O)O)C(=O)N[C@@H](CCC(N)=O)C(=O)N[C@@H](CCC(N)=O)C(=O)N[C@@H](CC(=O)O)C(=O)N[C@@H](Cc1ccccc1)C(=O)N[C@H](C(=O)N[C@@H](CC(N)=O)C(=O)N[C@@H](Cc1c[nH]c2ccccc12)C(=O)N[C@@H](CC(C)C)C(=O)N[C@@H](CC(C)C)C(=O)N[C@@H](C)C(=O)N[C@@H](CCC(N)=O)C(=O)N[C@@H](CCCCN)C(=O)NCC(=O)N1CCC[C@H]1C(=O)N[C@@H](CO)C(=O)N[C@@H](CO)C(=O)NCC(=O)N[C@@H](C)C(=O)O)C(C)C)[C@@H](C)CC
B4: AT468 (peptide)
peptide: EGTFISDYSIAMDKIK(C16 diacid)QQDFVNWLLAQKGPSSGAPP-OH
modifications: N-terminus assumed
SMILES: CC[C@H](C)[C@H](NC(=O)[C@H](CO)NC(=O)[C@H](Cc1ccc(O)cc1)NC(=O)[C@H](CC(=O)O)NC(=O)[C@H](CO)NC(=O)[C@@H](NC(=O)[C@H](Cc1ccccc1)NC(=O)[C@@H](NC(=O)CNC(=O)[C@@H](N)CCC(=O)O)[C@@H](C)O)[C@@H](C)CC)C(=O)N[C@@H](C)C(=O)N[C@@H](CCSC)C(=O)N[C@@H](CC(=O)O)C(=O)N[C@@H](CCCCN)C(=O)N[C@H](C(=O)N[C@@H](CCCCNC(=O)CCCCCCCCCCCCCCC(=O)O)C(=O)N[C@@H](CCC(N)=O)C(=O)N[C@@H](CCC(N)=O)C(=O)N[C@@H](CC(=O)O)C(=O)N[C@@H](Cc1ccccc1)C(=O)N[C@H](C(=O)N[C@@H](CC(N)=O)C(=O)N[C@@H](Cc1c[nH]c2ccccc12)C(=O)N[C@@H](CC(C)C)C(=O)N[C@@H](CC(C)C)C(=O)N[C@@H](C)C(=O)N[C@@H](CCC(N)=O)C(=O)N[C@@H](CCCCN)C(=O)NCC(=O)N1CCC[C@H]1C(=O)N[C@@H](CO)C(=O)N[C@@H](CO)C(=O)NCC(=O)N[C@@H](C)C(=O)N1CCC[C@H]1C(=O)N1CCC[C@H]1C(=O)O)C(C)C)[C@@H](C)CC
B5: AT467 (peptide)
peptide: EGTFISDYSIAMDKIK(C16 diacid)QQDFVNWLLAQKGPSSGAPPP-OH
modifications: N-terminus assumed
SMILES: CC[C@H](C)[C@H](NC(=O)[C@H](CO)NC(=O)[C@H](Cc1ccc(O)cc1)NC(=O)[C@H](CC(=O)O)NC(=O)[C@H](CO)NC(=O)[C@@H](NC(=O)[C@H](Cc1ccccc1)NC(=O)[C@@H](NC(=O)CNC(=O)[C@@H](N)CCC(=O)O)[C@@H](C)O)[C@@H](C)CC)C(=O)N[C@@H](C)C(=O)N[C@@H](CCSC)C(=O)N[C@@H](CC(=O)O)C(=O)N[C@@H](CCCCN)C(=O)N[C@H](C(=O)N[C@@H](CCCCNC(=O)CCCCCCCCCCCCCCC(=O)O)C(=O)N[C@@H](CCC(N)=O)C(=O)N[C@@H](CCC(N)=O)C(=O)N[C@@H](CC(=O)O)C(=O)N[C@@H](Cc1ccccc1)C(=O)N[C@H](C(=O)N[C@@H](CC(N)=O)C(=O)N[C@@H](Cc1c[nH]c2ccccc12)C(=O)N[C@@H](CC(C)C)C(=O)N[C@@H](CC(C)C)C(=O)N[C@@H](C)C(=O)N[C@@H](CCC(N)=O)C(=O)N[C@@H](CCCCN)C(=O)NCC(=O)N1CCC[C@H]1C(=O)N[C@@H](CO)C(=O)N[C@@H](CO)C(=O)NCC(=O)N[C@@H](C)C(=O)N1CCC[C@H]1C(=O)N1CCC[C@H]1C(=O)N1CCC[C@H]1C(=O)O)C(C)C)[C@@H](C)CC

What follows are binders tested against T1, human GIP receptor (assay: cell-based or functional assay).

Row | Binder | cAMP antagonism | cAMP antagonism % inhib | cAMP antagonism log | cAMP agonism Emax
1 | B1 | 25 nM | 55% | -7.6 log M | 
2 | B2 | 3 nM | 90% | -8.5 log M | 
3 | B3 | 14 nM | 100% | -7.8 log M | 
4 | B4 | 13 nM | 95% | -7.9 log M | 4.6
5 | B5 | 6 nM | 100% | -8.2 log M | 

Target: T1, human GIP receptor
Experiment: cell-based or functional assay
Remark: another data set of the same source

Row | Binder | cAMP agonism % Emax | cAMP antagonism | cAMP antagonism % inhib | cAMP antagonism pIC50
6 | B1 | 0% | 21.5 nM | 89% | 7.7
7 | B2 | 0% | 3.8 nM | 93% | 8.4
8 | B3 | 0% | 20 nM | 91% | 7.7
9 | B4 | 0% | 12.6 nM | 92% | 7.9
10 | B5 | 0% | 14.7 nM | 86% | 7.8
